# From the RNAGym collection of RNA variant scans (doi:10.1073/pnas.2313332121)
# This sample holds only a part of the variants without activity.
# B1: TPR 5TU (parent)
# chain: GGAUCUUCUCGAUCUAACAAAAAAGACAAAUCUGCCACAAAGCUUGAGAGCAUCUUCGGAUGCAGAGGCGGCAGCCUUCGGUGGCGCGAUAGCGCCAACGUUCUCAACUAUGACACGCAAAACGCGUGCUCCGUUGAAUGGAGUUUAUCAUG
# Variants of: B1
# Assay: polymerase ribozyme fitness, log enrichment relative to wild type (log ratio); higher = more active; in vitro selection for triplet polymerase activity
# Method in brief: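 The heterodimeric triplet polymerase ribozyme's subunits were each mutagenized into PCR-built libraries and transcribed. Every library was selected once, in triplicate, by annealing with a biotinylated primer, the partner subunit and triplets, incubating frozen at −7 °C, gel-excising extended constructs, capturing on streptavidin beads and running RT-PCR. Input and output libraries were Illumina-sequenced, with genotypes kept only at ≥10 input reads and ≥1 read per output. Fitness, from inverse-variance-weighted replicate averages, is the base-2 logarithm of genotype enrichment over wild-type enrichment.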
row,Variant,polymerase ribozyme fitness (log ratio)
1,GGAUCUUCUCGAUCUAACAAAAAAGACAAAUCUGCCACAAAGCUUGAGAGCAUCGUCGGAUGCAGAGGCGGCAGCCUUCGGUGGCGCGAUAGCGCCAACGUUCUCAACUAUGACACGCAAAACGCGUGCUCCGAUGAAAGGAGUUUAUCAUG [U55G U134A U139A],≤ -4.2
2,GGAUCUUCUCGAUCUAACAAAAAAGACAAAUCUGCCACAAAGCUUGAGAGCAUCUACGGUUGCAGAGGCGGCAGCCUUCGGUGGCGCGAUAGUGCCAACGUUCUCAACUAUGACACGCAAAACGCGUGCUCCGUUGAAUGUAGUUUAUCAUG [U56A A60U C93U G141U],-3.71
3,GGAUCUUCUCGAUCUAACAAAAAAGACAAAUCUGCCACAAAGCUUGAGAGCAUCUACGGAUGCAGAGGCGGCAGCCUUCGGUGGCGCGAUGGCGCCAACGUUCUCAACUAUGACACGCAAAACGCGUGCUCCGUUGAAUGGAGUUUAUCAUG [U56A A91G],-3.41
4,GGAUCUUCUCGAUCUAACAAAAAAGACAAAUCUGCCACAAAGCUUGAGAGCAUCGUCGGAUGCAGAGGCGGCAGCCUUCGGUGGCGCGAUAGCGCCAACGUUCUCAACUAUGACACGCAAAACGCGCGCUCCGUUGAAUGGAGUUUAUCAUG [U55G U127C],-1.36
5,GGAUCUUCUCGAUCUAACAAAAAAGACAAAUCUGCCACAAAGCUUGAGAGCAUCGUCGGAUGCAGAGGCGGCAGCCUUCGGUGGCGCGAUAGCGCCAACGUUCUCAACUAUGACACGCAAAACGCGAGCUCCGUUGAAUGGAGUUUAUCAUG [U55G U127A],-3.34
6,GGAUCUUCUCGAUCUAACAAAAAAGACAAAUCUGCCACAAAGCUUGAGAGCAUCGUCGGAUGCAGAGGCGGCAGCCUUCGGUGGCGCUAUAGCGCCGACGUUCUCAACUAUGACACGCAAAACGCGUGCUCCGUGGAAUGGAGUUUACCAUG [U55G G88U A97G U135G U148C],≤ -4.2
7,GGAUCUUCUCGAUCUAACAAAAAAGACAAAUCUGCCACAAAGCUUGAGAGCAUCGUCGGAUGCAGAGGCGGCAGCCUUCGGUGGCGCGAUAGCGCCAACGUUCUCAACUAUGACACGCAAAACGCGUGCUCCGCUGAAUGGAUUUUAUCAUG [U55G U134C G143U],-1.98
8,GGAUCUUCUCGAUCUAACAAAAAAGACAAAUCUGCCACAAAGCUUGAGAGCAUCGACGGAUGCAGAGACGGCAGCCUUCGGUGGCGCGAUAGCGCUAACGUUCUCAACUAUGACACGCAAAACGCGUGCUCCGUUGAAUGGAGUUUAUCAUG [U55G U56A G68A C96U],≤ -4.2
9,GGAUCUUCUCGAUCUAACAAAAAAGACAAAUCUGCCACAAAGCUUGAGAGCAUCUACGGAUGCAGAGGCGGCAGCCUUCGGUGGCGCGGUAGCGCCAAAGUUCUCAACUAUGACACGCAAAACGCGUGCUCCGUUGAAUGGAGUUUAUCAUG [U56A A89G C99A],-1.89
10,GGAUCUUCUCGAUCUAACAAAAAAGACAAAUCUGCCACAAAGCUUGAGAGCAUCGUCGGAUGCAGAGGCGGCAGCCUUCGGUGGCACGAUAGCGCCAACGUUCUCAACUAUGACACGCAAAACGCGUGCUCCGUUGAAGGGAGUUUAUCAUG [U55G G86A U139G],-1.96
11,GGAUCUUCUCGAUCUAACAAAAAAGACAAAUCUGCCACAAAGCUUGAGAGCAUCUACGGAUGCAGAGGCGGCAGCCUUCGGUGGCGCGUUAGCGCCAACGUUCUCAACUAUGACACGCAAAACGCGUGCUCCGUUGAAUGGAGUUUAUCAUG [U56A A89U],-0.431
12,GGAUCUUCUCGAUCUAACAAAAAAGACAAAUCUGCCACAAAGCUUGAGAGCAUCUACGGCUGCAGAGGCGGCAGCCUUCGGUGGCGCGAUAUCGCCAACGUUCUCAACUAUGACACGCAAAACGCGUGCUCCGUUGAAUGGAGUUUAUCAUG [U56A A60C G92U],-1.73
13,GGAUCUUCUCGAUCUAACAAAAAAGACAAAUCUGCCACAAAGCUUGAGAGCAUCUACGGAUGCAGAGGCGGCAGCCUUCGGUGGCGCGAUGGCGUCAACGUUCUGAACUAUGACACGCAGAACGCGUGCUCCGUUGAAUGGAGUUUAUCAUG [U56A A91G C95U C105G A120G],-3.49
14,GGAUCUUCUCGAUCUAACAAAAAAGACAAAUCUGCCACAAAGCUUGAGAGCAUCGUCGGAUGCAGAGGCGGCAGCCUUCGGUGGCGCGAUAUCGCCAACGUUCUCAACUAUGACACGCAAAACGCGUGCUCCGUUGAAGGGAGUUGAUCAUG [U55G G92U U139G U146G],-1.4
15,GGAUCUUCUCGAUCUAACAAAAAAGACAAAUCUGCCACAAAGCUUGAGAGCAUCUACGGAUGCAGCGGCGGUAGCCUUCGGUGGCGCGAUAAUGACAACGUUCUCAACUAUGACAAGCAAAACGCGUGCUCCGUUGAAUGGAGUUUAUCAUG [U56A A66C C72U G92A C93U C95A C116A],≤ -4.2
16,GGAUCUUCUCGAUCUAACAAAAAAGACAAAUCUGCCACAAAGCUUGAGAGCAUCUACGGAUGCAGAGGCGGCAGCCUUCGGUGGCGCGUUAGCGCGAACGUUCUCAACUAUGACACGCAAAACGCGUGCUCCGUUGAAUGGAGUUUAUCAUG [U56A A89U C96G],-1
17,GGAUCUUCUCGAUCUAACAAAAAAGACAAAUCUGCCACAAAGCUUGAGAGCAUCGUCGGAUGCAGAGGCGGCAGCCUUCGGUGGCGCGAUAGCGCCAACGUUCUCAACUAUGACACGCAAAACGCGUGCUCCGUUGAAUGGAAUUUAUCAUG [U55G G143A],-0.655
18,GGAUCUUCUCGAUCUAACAAAAAAGACAAAUCUGCCACAAAGCUUGAGAGCAUCGUCGGAUGCAGAGGCGGCAGCCUUCGGUGGCGCGAUAGCGCCAACGUUCUCAACUAUGACACGCAAAACGCGUGCUCCGUUGAAUGGACUUUAUCAUG [U55G G143C],-2.79
19,GGAUCUUCUCGAUCUAACAAAAAAGACAAAUCUGCCACAAAGCUUGAGAGCAUCGUCGGAUGCAGAGGCGGCAGCCUUCGGUGGCUCGAUAGCGCCAACGUUCUCAACUAUGACACGCAAAACGCGUGCUCCGUUGAAUGGAGUUUAUCAUG [U55G G86U],-0.476

row,Variant,polymerase ribozyme fitness (log ratio)
1,GGAUCUUCUCGAUCUAACAAAAAAGACAAAUCUGCCACAAAGCUUGAGAGCAUCUACGGAUGCAGAGGCGGCAGCCUUCGGUGGCGCGAUAGCGCCGACGUUCUCAACUAUGACACGCAAAACGCGUGCUCCGUUGAAUGGAGUUUAUCAUG [U56A A97G],-0.89
2,GGAUCUUCUCGAUCUAACAAAAAAGACAAAUCUGCCACAAAGCUUGAGAGCAUCUACGGAUGCAGAGGCGGCAGCCUUCGGUGGCGCGAUAGCGCCUACGUUCUCAACUAUGACACGCAAAACGCGUGCUCCGUUGAAUGGAGUUUAUCAUG [U56A A97U],-1.47
3,GGAUCUUCUCGAUCUAACAAAAAAGACAAAUCUGCCACAAAGCUUGAGAGCAUCUACGGAUGCUGAGGCGGCAGCCUUCGGUGGCGCGAUAGCGCCAACGUUCUCAACUAUGACACGCAAAACGCGUGCUCCGUUGAAUGGAGUUUAUCAUG [U56A A64U],-4.19
4,GGAUCUUCUCGAUCUAACAAAAAAGACAAAUCUGCCACAAAGCUUGAGAGCAUCGUCGGAUGCAGAGGCGGCAGCCUUCGGUGGCGCGAUAGCGCCAACGUUCUCAACUAUGACACGCAAAACGCGUGCUCCGUUGAAUGGAGUAUAUCAUG [U55G U145A],-0.604
5,GGAUCUUCUCGAUCUAACAAAAAAGACAAAUCUGCCACAAAGCUUGAGAGCAUCUACGGGUGCAGAGGCGGCAGCCUUCGGUGGCGCGAUAGCGCCAACGUUCUCAACUAUGACACGCAAAACGCGUGCUCCGUUGAAUGGAGUUUAUCAUG [U56A A60G],0.416
6,GGAUCUUCUCGAUCUAACAAAAAAGACAAAUCUGCCACAAAGCUUGAGAGCAUCUACGGAUGCAGGGGCGGCAGCCUUCGGUGGCGCGAUAGCGUCAAUGUUCUCAACUAUGACACGCAGAACGCGUGCUCCGUUGAAUGGAGUUUAUCAUG [U56A A66G C95U C99U A120G],≤ -4.2
7,GGAUCUUCUCGAUCUAACAAAAAAGACAAAUCUGCCACAAAGCUUGAGAGCAUCGUCGGAUGCAGAGGCGGCAGCCUUCGGAGGCGCGAUAGCGCCAACGUUCUCAACUAUGACACGCAAAACGCGUGCUCCGUUGAAUGGAGUUUACCAUG [U55G U82A U148C],-2.51
8,GGAUCUUCUCGAUCUAACAAAAAAGACAAAUCUGCCACAAAGCUUGAGAGCAUCUACGGAUGCAGAGGCGGCAGCCUUCGGUGGCGCGAUUGCGCCAACGUUCUCAACUAUGACACGCAAAACGUGUGCUCUGUUGAAUAGAGUUUAACAUG [U56A A91U C125U C132U G140A U148A],≤ -4.2
9,GGAUCUUCUCGAUCUAACAAAAAAGACAAAUCUGCCACAAAGCUUGAGAGCAUCGUCGGAUGCAGAGGCGGCAGCCUUCGGUGGCGCGAGAGCGCCGACGUUCUCAACUAUGACACGCAAAACGCGUGCUCCGUGGAAUGGAGUUUAUCAUG [U55G U90G A97G U135G],≤ -4.2
10,GGAUCUUCUCGAUCUAACAAAAAAGACAAAUCUGCCACAAAGCUUGAGAGCAUCGUCGGAUGCAGAGGCGGCAGCCUUCGGGGGAGCGAUAGCGCCCACGUUCCCAACUAUGACACGCAAAACGCGUGCUCCGUUUAAUGGAGUUUAUCAUG [U55G U82G C85A A97C U104C G136U],-3.65
11,GGAUCUUCUCGAUCUAACAAAAAAGACAAAUCUGCCACAAAGCUUGAGAGCAUCGUCGGAUGCAGAGGCGGCAGCCUUCGGUGGCGCGAUAGCGCCAACGUUCUCAACUAUGACACGCAAAACGCGUGCUCCUUUGAAUGGAGUUUAUCAUG [U55G G133U],-4.16
12,GGAUCUUCUCGAUCUAACAAAAAAGACAAAUCUGCCACAAAGCUUGAGAGCAUCUACGGAUGCAGAGGCGGCAGCCUUCGGUGGCGCGAUGGCGCCAACGUUCUCAACUAUGACACGCAAAACGCGUGCUCCGUUGAAUGGAGUUUACCAUG [U56A A91G U148C],-3.72
13,GGAUCUUCUCGAUCUAACAAAAAAGACAAAUCUGCCACAAAGCUUGAGAGCAUCUACGGAUGCAGAGGCGGCGGCCUUCGGUGGCGGGAUAGCGCCAACGUUCUCAACUAUGACACGCAAAACGCGUGCUCCGUUGAAUGGAGUUUAUCAUG [U56A A73G C87G],≤ -4.2
14,GGAUCUUCUCGAUCUAACAAAAAAGACAAAUCUGCCACAAAGCUUGAGAGCAUCUACGGGUGCAGAGGCGGCAGCCUUCGGUGGCGCGAUAGCGCCAACGUUCUCAACUAUGACACGCAAAACGGGUGCUCCGUUGAAUGGAGUUUAUCAUG [U56A A60G C125G],-0.563
15,GGAUCUUCUCGAUCUAACAAAAAAGACAAAUCUGCCACAAAGCUUGAGAGCAUCGACGGAUGCAGAGGCGGCAGCCUUCGGCGGCGCGAUAGCGCCAACGUUCUCAACUAUGACACGCAAAACGCGUGCUCCGUUGAAUGGAGUUUAUCAUG [U55G U56A U82C],-1.09
16,GGAUCUUCUCGAUCUAACAAAAAAGACAAAUCUGCCACAAAGCUUGAGAGCAUCUACGGAUGCAGAGGCGGCUGCCUUGGGUGGCGCAAUAGCGCCAACGUUCUCAACUAUGACACGCAAAACGCGUGCUCCGUUGAAUGGAGUUUAUCAUG [U56A A73U C79G G88A],≤ -4.2
17,GGAUCUUCUCGAUCUAACAAAAAAGACAAAUCUGCCACAAAGCUUGAGAGCAUCGUCGGAUGCAGAGGCGGCAGCCUUCGGUGGCGCGAUAGCACCAUCGUUCUCAACUAUGACACGAAAAACGCGUGCUCCGUUGAAUGGAGUUUAUCAUG [U55G G94A A98U C118A],-1.56
18,GGAUCUUCUCGAUCUAACAAAAAAGACAAAUCUGCCACAAAGCUUGAGAGCAUCUACGGAUGCAGAGGCGGCCGCCUUCGGUGGCGCGAUAGCCCCAACGUUCUCAACUAUGACACGCAAAACGCGUGCUCCGUUGAAUGGAGUUUAUCAUG [U56A A73C G94C],-3.51
19,GGAUCUUCUCGAUCUAACAAAAAAGACAAAUCUGCCACAAAGCUUGAGAGCAUCUACGGAUGCAGAGGCGGCGGCCUUCGGUGGCGCGAUAGCGCCAACGUUCUCAACUAUGACACGCAAAACGCGUGCUCCGUUGAAUGGAGUUUAUCAUG [U56A A73G],-0.236
